This is an account of results in publication PMC6348830, “In Vivo Biokinetics of ^177Lu-OPS201 in Mice and Pigs as a Model for Predicting Human Dosimetry” (Contrast Media & Molecular Imaging, 2019).

Positions of bridges follow the written chain, without caps; N, C: chain ends. Non-standard residues stand in square brackets, D forms with d. Residues, ends and D or L forms follow the SMILES beside them. *: point of attachment. DOTA = O=C(O)CN1CCN(CC(=O)O)CCN(CC(=O)*)CCN(CC(=O)O)CC1; dPhe(4-NHCONH2) = NC(=O)Nc1ccc(C[C@@H](N)C(=O)O)cc1; Dihydroorotyl(S) = O=C1C[C@@H](C(=O)*)NC(=O)N1; Phe(4-Cl) = N[C@@H](Cc1ccc(Cl)cc1)C(=O)O; Phe(4-NH2) = Nc1ccc(C[C@H](N)C(=O)O)cc1

For series [1] the following is noted: human, in vivo; cited from earlier work. The procedure: The fast blood clearance of the OPS201 in the first phase (<56 h) for each species was in agreement with studies of the agonist. […] For humans, most likely because of the short observation period, the value was lower (0.5 h). For the late phase in pigs, our result (58 h) is also close to the results obtained in the human study with the agonist (43 h). Part of an ongoing phase 1 study with ^177Lu-OPS201 in patients with SSTR-posi ...

The nature of series [2]: clinical. To be noted: both sexes, human, in vivo, total radioactivity. Further details: species or system patients (humans). The procedure: (§1) For analyzing the biokinetics of ^177Lu-labeled peptides in preclinical and clinical studies, the data of ^177Lu-OPS201 athymic nude Foxn1nu mice (28 females, weight: 26 ± 1 g, age: 8–9 weeks), Danish Landrace pigs (3 females-1 male, weight: 28 ± 2 kg, age: 3 months), and patients (3 females-1 male, weight: 61 ± 17 kg, age: 44–77 years) with administered activities of 0.19–0.27 MBq (mice, 0.017 µg of peptide), 97–113 MBq (pigs, 9 µg of peptide), and 850–1086 MBq (patients, 55–106 µg of peptide) were included. For pigs and patients, kidney protection was applied.
After administration of ^177Lu-OPS201, blood samples were taken up to 72 h for mice, up to 300 h for pigs, and up to 23 h for patients in order to measure the blood radioactivity contents by using the same well-type gamma counter (Packard Instruments). […] In order to convert the raw count values to blood uptake values per mL human blood in each time point, human blood data were quantified (in Bq/mL) retrospectively by using the same calibration factor as for the mouse study. […]
To quantify the amount of activity, the average percentage values corresponding to the injected radioactivity (A%) per organ as a function of time were calculated for the liver, right kidney, left kidney, and blood for each species via a manual VOI analysis (for pigs and patients) and via gamma counter (for mice). […]

Series [3] is described as follows: in vivo. Details: species or system Danish Landrace pigs. To be noted: both sexes, Danish Landrace, pig, total radioactivity. The procedure:
as §1
After administration of ^177Lu-OPS201, blood samples were taken up to 72 h for mice, up to 300 h for pigs, and up to 23 h for patients in order to measure the blood radioactivity contents by using the same well-type gamma counter (Packard Instruments). The human blood data were, originally, provided as relative values, normalized to the first blood sample immediately taken after injection. In order to convert the raw count values to blood uptake values per mL human blood in each time point, human blood data were quantified (in Bq/mL) retrospectively by using the same calibration factor as for the mouse study.
After injection, multiple whole body (WB) planar images and SPECT/CT scans were acquired at 0.5, 2, 3, 4, 50, 100, 150, and 250 h to quantify the uptake in the kidneys and liver. […]

As to `C[C@@H](O)[C@H](NC(=O)[C@@H]1CSSC[C@H](NC(=O)[C@@H](Cc2ccccc2)NC(=O)CN2CCN(CC(=O)[O-])CCN(CC(=O)[O-])CCN(CC(=O)[O-])CC2)C(=O)N[C@@H](Cc2ccc(O)cc2)C(=O)N[C@H](Cc2c[nH]c3ccccc23)C(=O)N[C@@H](CCCCN)C(=O)N[C@@H]([C@@H](C)O)C(=O)N1)C(=O)O.[177Lu+3]` [177Lu-octreotate, DOTA-[Tyr3]octreotate], in series [1], the “half-life of late phase, blood” value was 43 h and the “mean effective half-life of first phase, blood” value was 1.6 h.

For the molecule `C[C@@H](O)[C@@H]1NC(=O)[C@H](CCCCN)NC(=O)[C@@H](Cc2ccc(NC(N)=O)cc2)NC(=O)[C@H](Cc2ccc(NC(=O)[C@@H]3CC(=O)NC(=O)N3)cc2)NC(=O)[C@H](NC(=O)[C@H](Cc2ccc(Cl)cc2)NC(=O)CN2CCN(CC(=O)O)CCN(CC(=O)O)CCN(CC(=O)O)CC2)CSSC[C@@H](C(=O)N[C@H](Cc2ccc(O)cc2)C(N)=O)NC1=O` [177Lu-OPS201, metal not drawn] ({DOTA}-[Phe(4-Cl)][dC][Phe(4-NH2)](Dihydroorotyl(S))[dPhe(4-NHCONH2)]KTC[dY]-NH2; disulfide 2-7), the tissue uptake dose at 10 min in series [2] and in series [3] was below 5 %ID throughout.
